Test in all cases: BLI heatmap
The target in experiment [1] is T1, VA peptide VAKLDEESILKQK (XAKLDEESILKQK, X = V).
T1 construct: Immobilized on the biolayer interferometry sensor
T1 peptide: VAKLDEESILKQK

In experiment [2] the target is T2, F peptide FAKLDEESILKQK (XAKLDEESILKQK, X = F).
T2 construct: Immobilized on the biolayer interferometry sensor
T2 peptide: FAKLDEESILKQK

The target of experiment [3] is T3, LA peptide LAKLDEESILKQK (XAKLDEESILKQK, X = L).
T3 construct: Immobilized on the biolayer interferometry sensor
T3 peptide: LAKLDEESILKQK

Experiment [4] addresses T4, IA peptide IAKLDEESILKQK (XAKLDEESILKQK, X = I).
T4 construct: Immobilized on the biolayer interferometry sensor
T4 peptide: IAKLDEESILKQK

Experiment [5] concerns the target T3, LA peptide LAKLDEESILKQK ….
Experiment [6] concerns the target T4, IA peptide IAKLDEESILKQK ….
The target of experiment [7] is T1, VA peptide VAKLDEESILKQK ….
Experiment [8] has as its target T2, F peptide FAKLDEESILKQK (XAKLDEESILKQK, …).
Experiment [9] concerns the target T5, W peptide WAKLDEESILKQK (XAKLDEESILKQK, X = W).
T5 construct: Immobilized on the biolayer interferometry sensor
T5 peptide: WAKLDEESILKQK

Where two headings read alike, the source gives them in different places.

B1: PS547 (other)
chain: MGFPTDFRQSIEISTPLGSQQPRFSNASSEPALADPVLVINPRIQPRYHVILLNDDDHTYRYVIEMMLIVFGHPPEKGFLIAKEVDKAGRAICLTTSLEHAEFKQEQVHAYGADPYFGPKCKGSMTAVLEPAE
With B1, the binding result in experiment [1] and in experiment [2] was “no binding” throughout.

B2: PS574 (other)
chain: MANATPTPDVVPEEETETRTRRQPPYAVVLHNDDTNTMDFVVTVLRKVFGYTVEKCVELMLEAHTQGKVAVWIGALEVAELKADQIKSFGPDPHVTKNGHPLGVTVEPAA
For the molecule B2, the binding result in experiment [3] is “no binding”; in [4], “no binding”; in experiment [1], “no binding”; in experiment [2], “binds”.

B3: PS569 (other)
chain: MYSKNQIKIYCSEDDKGQTATPLLEKKPKFAPLYHVILWDDNTHTYEYVIKLLMSLFRMTFEKAYQHTLEVDKKGRTICITTHLEKAELKQEQISNFGPDILMQNSKGPMSATIEPAN
As to B3, the binding result in experiment [4], in experiment [1] and in [2] was “no binding” each time.

B4: PS571 (other)
chain: MTSSGASQPSILEETERKPRLSDGPWKVVLWDDDFHTYEYVIEMLMDVCQMPWEKAFQHAVEVDTRKKTIVFFGELEHAEFVHERILNYGPDPRMGTSKGSMTATLEK
B4: the binding result in experiment [3] is “binds”; in experiment [4] it was “binds”; in experiment [1], “binds”; in experiment [2], “no binding”.

B5: PS553 (other)
chain: MPASASAVTEPPVSLPEAAAPRPKDRPKRQPRYHVILWNDDDHTYQYVVAMLRQLFGHPPEKGFTLAKQVDKDGRVVVLTTTKEHAELKRDQIHAFGADRLLARSKGSMSASIEPEASTG
As for B5, the binding result in experiment [3] is given as “binds”; in experiment [4], “binds”; in [1], “binds”; in experiment [2] it was “no binding”.

B6: PS563 (other)
chain: MSSRSATAYPEVEDDTSDQLQPLYHVILLNDEDHTYDYVIEMLQKIFGFPESKAFSHAVEVDTKGTTILLTCDLEQAERKRDLIHSYGPDWRLPRSLGSMAAVVEPAAG
Regarding B6, the binding result in experiment [3] was “binds”; in [4], “binds”; in experiment [1] it was “binds”; in experiment [2], “no binding”.

B7: PS398 (other)
chain: MPLKAQNRSIVGRRDEWPPPTTQSSSETKSESKRVSDTGADTKRKTKTVPKVEKPRLYKVILVNDDYTPREFVLVVLKAVFRMSEDQGYKVMITAHQKGSCVVAVYTRDIAETKAKEAVDLAKEIGFPLMFRTEPEE
For the molecule B7, the binding result in experiment [5] is recorded as “no binding”; in [6] it was “no binding”; in experiment [7], “no binding”; in experiment [8], “binds”; in experiment [9], “binds”.

B8: PS577 (other)
chain: MSASSSQPGTTTKPDLDIQPRLLPPFHVILENDEFHSMEFVIDTLRKVLGVSIERAYQLMMTAHESGQAIIWTGPKEVAELKYEQVIGFHEKRSDGRDLGPLGCRIEPAV
Regarding B8, the binding result in experiment [3] is on record as “no binding”; in experiment [4] it was “no binding”; in experiment [1], “no binding”; in experiment [2], “binds”.

B9: PS564 (other)
chain: MFEEVVSVAVAEPKTKKQSRTKPKRQPPYHVILWDDTDHTFDYVIKMMGELFRMPREKGYQLAKEVDTSGRAICMTTTLELAELKRDQIHAFGRDDASAHCKGSMSATIEPAEG
With B9, the binding result in experiment [3], in experiment [4], in experiment [1] and in [2] was “no binding” in each case.

B10: PS554 (other)
chain: MSDSASATVEVQADPPADATARSQPTPARSTGSKPKRQPRYHVVLWNDDDHTYEYVIAMLRRLFGIEPEKGFRIAEEVDQSGRAVVLTTTREHAELKRDQIHAFGADRLLARSKGSMSASIEPEA
Consider B10, for which the binding result in experiment [3] is given as “binds”; in experiment [4] it was “binds”; in experiment [1], “binds”; in [2], “no binding”.

B11: PS572 (other)
chain: MSSEELSLQTRPKRQPPFGVILHNDDLNSFDYVIDSIRKVFHYELEKCFQLTLEAHETGRSLLWTGTLEGAELKQELLLSCGPDPIMLDKGGLPLKVTLEELPQ
As for B11, the binding result is “no binding” in experiment [3], “no binding” in [4], “no binding” in experiment [1] and “binds” in experiment [2].

B12: PS559 (other)
chain: MNQAAISPNPDIKPNPSTHKKRASQRQPRYHVILWNDNDHTYHYVVTMLQKLFGHPPRTGIKMATEVDKKGKVIVLTTSREHAELKRDQIHAFGADKLIRRSKGAMAASIEPES
As for B12, the binding result in experiment [3], in experiment [4] and in [1] was “binds” in each case.

B13: PS568 (other)
chain: MTTPSLPTRETEVEERTEVEPERLYHLVLLDDDQHSYQYVIEMLASIFGYGSEKAWTLARIVDTEGRAILETASHAQCERHQSQIHAYGADSRIPTSVGSMSAVIEEAGTPPQT
In the case of B13, the binding result in [3], in [4] and in experiment [1] was “binds” in each case.

B14: PS424 (other)
chain: MSVETIEKRSTTRKLAPQYRVLLHNDDYNSMEYVVQVLMTSVPSITQPQAVNIMMEAHNSGLALVITCAQEHAEFYCETLKGHGLSSTIEPD
Consider B14, for which the binding result is “no binding” in experiment [5]; “no binding” in experiment [6]; “no binding” in experiment [7]; “binds” in experiment [8]; “binds” in experiment [9].

B15: PS552 (other)
chain: MSKTSTLPEVESESAQKLKYQPPYHVILLNDDDHSYVYVITMLKELFGHPEQKGYQLADAVDKQGRAIVFTTTREHAELKQEQIHAYGPDPTIPRCKGAMTAVIEPAE
In the case of B15, the binding result in experiment [3] is on record as “binds”; in [4] it was “binds”; in experiment [1] it was “binds”; in experiment [2], “no binding”.

B16: PS576 (other)
chain: MASTQTPDLNEITEESTKSTGGPWRVVLWDDNEHTYEYVIEMLVEICMMTVEKAFLHAVQVDKEKRTVDFSGELEHAEHVQERILNYGADPRMSNSKGSMSATLER
For B16, the binding result in experiment [3], in experiment [4], in experiment [1] and in experiment [2] was “no binding” in each case.

B17: PS423 (other)
chain: MAPTPAGAAVLDKQQQRRHKHASRYRVLLHNDPVNTMEYVVESLRQVVPQLSEQDAIAVMVEAHNTGVGLVIVCDIEPAEFYCEQLKTKGLTSSIEPED
As for B17, the binding result in [5] is “no binding”; in experiment [6] it was “no binding”; in [7], “no binding”; in experiment [8], “binds”; in experiment [9], “binds”.

B18: PS561 (other)
chain: MAELQTAVVEPTTRPEQDEKQSQSRPKRQPRYNVILWDDPDHSYDYVIMMLKELFGHPRQRGHQMAEEVDTTGRVICLTTTMEHAELKRDQIHAYGSDEGITRCKGSMSASIEPVPE
In the case of B18, the binding result in [3], in experiment [4], in experiment [1] and in experiment [2] was “no binding” throughout.

B19: PS573 (other)
chain: MSQTPVIEETTVKDPVKTGGPWKVVLWDDDEHTYDYVIEMLMEVCVMTMEQAFHHAVEVDTQKKTVVYSGEFEHAEHIQELILEYGPDPRMAVSKGSMSATLEKS
For B19, the binding result is on record as “binds” in experiment [3], “binds” in experiment [4], “binds” in [1] and “no binding” in experiment [2].

B20: PS555 (other)
chain: MADSAQTGVAEPIQETLRRRKLRDDRRPKRQPPYHVILWNDNDHTYAYVVVMLMQLFGYPAEKGYQLASEVDTQGRAVVLTTTKEHAELKRDQIHAYGKDGLIEKCKGSMWATIEPAPGE
Regarding B20, the binding result is “binds” in [3], “binds” in [4] and “no binding” in [1].

Source of the values: patent US20210364527A1 (QUANTUM SI, published 2021).
